The values that follow are results of earlier work, collected in PMC5337993.

This series deals with Kv1.3 (Homo sapiens) (UniProt P22001).
Sequence of UniProt P22001 (P22001 whole entry): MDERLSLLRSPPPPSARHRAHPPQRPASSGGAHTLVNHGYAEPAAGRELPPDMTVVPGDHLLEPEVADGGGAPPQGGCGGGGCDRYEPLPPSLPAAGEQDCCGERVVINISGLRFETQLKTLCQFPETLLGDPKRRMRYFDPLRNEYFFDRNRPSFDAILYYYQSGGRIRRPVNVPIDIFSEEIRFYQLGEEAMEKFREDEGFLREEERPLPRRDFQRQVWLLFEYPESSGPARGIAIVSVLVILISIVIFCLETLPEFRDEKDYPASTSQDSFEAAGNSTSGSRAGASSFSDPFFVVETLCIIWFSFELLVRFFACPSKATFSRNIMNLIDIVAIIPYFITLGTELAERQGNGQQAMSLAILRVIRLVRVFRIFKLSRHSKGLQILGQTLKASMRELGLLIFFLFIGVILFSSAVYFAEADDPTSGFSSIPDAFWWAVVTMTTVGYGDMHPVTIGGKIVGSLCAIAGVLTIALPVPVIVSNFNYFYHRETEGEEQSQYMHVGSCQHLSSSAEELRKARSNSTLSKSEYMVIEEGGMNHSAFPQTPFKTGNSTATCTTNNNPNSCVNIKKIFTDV

For orientation: Kd means the constant that tells how readily two partners part at equilibrium. ShK (from UniProt P29187): the Kd was 0.01 nM.
